Like-named read-outs stand apart in the source and are kept apart here. Where no end group is shown, it is not given here. The star is where a group is joined. FITC = O=C1OC2(c3ccc(O)cc3Oc3cc(O)ccc32)c2ccc(NC(=S)*)cc21
Experiments:
Assay in all cases: fluorescence polarisation
[1] = biological target: T1, BFL-1ΔC C55 (N-His6 BFL-1ΔC (1–151) bearing C4S/C19S mutations) (human, UniProt Q16548 1-151, C4S | C19S)
T1 sequence (looked up): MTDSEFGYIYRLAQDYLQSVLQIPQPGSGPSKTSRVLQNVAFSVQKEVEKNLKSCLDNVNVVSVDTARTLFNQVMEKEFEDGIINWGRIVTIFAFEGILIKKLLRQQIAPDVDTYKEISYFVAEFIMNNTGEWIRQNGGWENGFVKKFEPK

[2] = biological target: T1, BFL-1ΔC C55 (N-His6 BFL-1ΔC (1–151) …); remark: listed apart in the source
[3] = biological target: T1, BFL-1ΔC C55 (N-His6 BFL-1ΔC (1–151) …); remark: listed apart in the source
[4] = biological target: T1, BFL-1ΔC C55 (N-His6 BFL-1ΔC (1–151) …); remark: listed apart in the source
[5] = biological target: T1, BFL-1ΔC C55 (N-His6 BFL-1ΔC (1–151) …); remark: listed apart in the source

{FITC}-DIIRNIARHLAQVGDSMDRSI [FITC-BID BH3 peptide]
Kd [1]: 3.3 nM
Kd [2]: 1.6 nM
Kd [3]: 24.3 nM
Kd [4]: 12.3 nM
Kd [5]: 18.4 nM

— paper PMC7544158 (Nature structural & molecular biology, 2020)
